Results reported in PMC3805524, “GmSAL1 Hydrolyzes Inositol-1,4,5-Trisphosphate and Regulates Stomatal Closure in Detached Leaves and Ion Compartmentalization in Plant Cells” (PLoS ONE, 2013).

Substrate: O=P(O)(O)O[C@@H]1[C@H](O)[C@H](O)[C@@H](OP(=O)(O)O)[C@H](OP(=O)(O)O)[C@H]1O
Experiment: purified protein
Format: biochemical, Glycine max
Details: 25 mM Tris-HCl pH 7.5, 1 mM MgCl2, 37°C, 30 min, IP3 0.0125-0.2 mM

B1: GmSAL1 (Glycine max) (protein)
chain: MPYEKEFAAAKKAATLAARLCKKVQKALLQSDVHSKSDKSPVTVADYGSQALVSFILERELPSEPFSLVAEEDSGDLRKESGQDTLKRITELVNDTLASEGSNSFSTLTTDDVLAAIDGGKSEGGSVGRHWVLDPIDGTKGFVRGDQYAIALALLDEGKVVLGVLACPNLPLASIGSNQQLSSSNEVGCLFFAKVGDGTYMQALGGSTQTRVHVCDIDNPEEASFFESFEAAHSSHDLSSSIAEKLGVKAPPVRIDSQAKYGALSRGDGAIYLRFPHKGYREKIWDHAAGSIVVTEAGGIAMDAAGNPLDFSKGKFLDVVSGIIVTNQKLKASLLRAVKEALNEKVSSL
notes: cloning primers encode N-terminal MPYEKEF and C-terminal KVSSL
Km: 10.8 ± 0.1 µM | kcat: 1.13 ± 0.217 s⁻¹
